Laboratory results as given in publication doi:10.1101/2022.02.24.481830 (bioRxiv, 2022).

Columns and labels:
H3 COBRA NG2 HA protein = H3 COBRA NG2 HA protein (Influenza A virus H3, synthetic …)
H3 COBRA TJ5 HA protein = H3 COBRA TJ5 HA protein (Influenza A virus H3, synthetic …)
H3 COBRA J4 HA protein = H3 COBRA J4 HA protein (Influenza A virus H3, synthetic …)

Measured: binding result

B1: TJ5-16 (antibody, V domains shown)
VH: EVQLVQSGAEVKKPGASVKVSCKASGYTFTGYYIYWVRQAPGQGLEWMGWINPNGGGTNYAQKFQGRVTMTRDTSITTAYMELSRLRSDDSAVYYCAARAGPGTQDAQTIDFWGQGTLVTVSS
VL: SYELTQPPSVSVSPGQTARITCSGDALPKQYGYWYQQKPGQAPVLVIYKDSERPSGIPERFSGSSSGTTVTLTISGVQAEDEADYYCQSADSSGSYWVFGGGTKLT
binds: all assays above
